# Data published in US20240358755A1 (IMMATICS BIOTECHNOLOGIES, published 2024).
# Biological target: T1, HLA-A*03:01 (human)
# T1 construct: Peptide-receptive MHC class I monomer in the UV-ligand exchange assay
# Assay: UV peptide exchange, anti-b2m ELISA; exchange yield grade
# Text: Candidate peptides for T cell based therapies according to the present invention were further tested for their MHC binding capacity (affinity). The individual peptide-MHC complexes were produced by UV-ligand exchange, where a UV-sensitive peptide is cleaved upon UV-irradiation and exchanged with the peptide of interest as analyzed. Only peptide candidates that can effectively bind and stabilize the peptide-receptive MHC molecules prevent dissociation of the MHC complexes. To determine the yield of the exchange reaction, an ELISA was performed based on the detection of the light chain (β2m) of stabilized MHC complexes. The assay was performed as generally described in Rodenko et al. (Rodenko et al., 2006).
# 96 well MAXISorp plates (NUNC) were coated over night with 2 μg/ml streptavidin in PBS at room temperature, washed 4× and blocked for 1 h at 37° C. in 2% BSA containing blocking buffer. […] Peptide-MHC monomers of the UV-exchange reaction were diluted 100-fold in blocking buffer. Samples were incubated for 1 h at 37° C., washed four times, incubated with 2 μg/ml HRP conjugated anti-β2m for 1 h at 37° C., washed again and detected with TMB solution that is stopped with […]. Absorption was measured at 450 nm.
row,Binder,peptide exchange yield [%]
1,AILAPPAILK,≥ 75
2,GTVFVLLSK,20 to 50
3,VIYNQTLMK,≥ 75
4,MVNWSLTNK,≥ 75
5,RILEVVRQPK,≥ 75
6,ILAPPAILK,≥ 75
7,MLSAQFILK,≥ 75
8,RVIEVVMNSK,≥ 75
9,LIYIPTNSIYK,≥ 75
10,GVCSTLTIK,≥ 75
11,ATLQAVTLYKK,≥ 75
12,GTFIAPVMK,≥ 75
13,LLFKGLMWK,≥ 75
14,SLATAISAK,50 to 75
15,RLYSGSSFLY,≥ 75
16,AVVSHFILY,50 to 75
17,SLFPYFLNK,≥ 75
18,KTIDLVIVR,≥ 75
19,SVFSLVHLFDK,≥ 75
20,TTLENLPQK,50 to 75
21,LIAGLIFLK,50 to 75
22,GSCSFALSR,≥ 75
23,TTAAVYILK,50 to 75
24,KLIAGLIFLK,50 to 75
25,KVGAVVHLK,50 to 75
26,LALLGAPPPK,20 to 50
27,RIVTYIVAK,50 to 75
28,AVFLGNPSNQK,≥ 75
29,ATNSFLLIK,≥ 75
30,GSLQTLPPK,50 to 75
